{"source": "patent US6307026", "about": "“Humanized antibodies directed against A33 antigen” (Celltech Limited, dated 2001)", "key": {"A33 antigen [1]": {"target": "T1, A33 antigen (human, UniProt Q99795)", "T1 sequence": "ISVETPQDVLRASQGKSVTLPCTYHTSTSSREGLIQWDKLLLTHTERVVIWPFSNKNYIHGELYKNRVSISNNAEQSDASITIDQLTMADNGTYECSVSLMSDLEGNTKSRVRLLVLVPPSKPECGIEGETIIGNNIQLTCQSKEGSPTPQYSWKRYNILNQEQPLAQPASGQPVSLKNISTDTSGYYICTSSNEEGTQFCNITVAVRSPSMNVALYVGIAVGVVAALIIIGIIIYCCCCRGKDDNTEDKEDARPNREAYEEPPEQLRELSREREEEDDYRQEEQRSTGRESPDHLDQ", "assay": "direct binding to ASPC-1 cells, FITC labelled anti-human IgG, FACScan", "experimental": "In the direct binding assay ASPC-1 or Colo205 cells were incubated at […] for 1 h. in the presence of various amounts of murine, chimeric or humanised A33, or non-specific antibody controls.\nTo confirm that the sequences obtained could combine to bind to the A33 antigen the chimeric expression plasmids pRO107 and pRO108 were transiently co-expressed in CHO-L761h cells (Cockett et al., 1990) at 200 mL scale. […] The binding of the antibody to the cells was measured using FITC labelled anti-human IgG and the bound fluorescence was detected in a FACScan analyser."}, "A33 antigen [2]": {"target": "T1, A33 antigen", "assay": "competition assays of Example 1 (FITC-labelled murine A33 on cells, FACScan); reference"}, "A33 antigen [3]": {"target": "T1, A33 antigen", "assay": "fluorescein-labelled antibody titrated on SW1222 cells, FACScan, Scatchard plot", "experimental": "The potency of hA33 (γ1) was compared to that of murine A33 by binding to cells of the human colerectal cancer cell line SW 1222. Fluorescently labelled conjugates of purified humanised and murine A33 were prepared to give approximately 1.5 molecules of fluorescein per antibody molecule. SW1222 cells (2.8×10⁵ per tube) were incubated with the fluorescent antibodies titrated in the range 3.57 µg/ml to 12 ng/ml in PBS with 5% foetal calf serum and 0.2% sodium azide on ice for 1.5 hours. After washing, antibody bound to the surface of the cells was detected by a FACscan (Becton Dickinson) as a fluorescent signal which was converted to numbers of antibody molecules bound per cell by calibration with fluorescent microbead standards."}}}
{"binder": "chimeric A33(γ1) (antibody, V domains shown) VH: EVKLVESGGGLVKPGGSLKLSCAASGFAFSTYDMSWVRQTPEKRLEWVATISSGGSYTYYLDSVKGRFTISRDSARNTLYLQMSSLRSEDTALYYCAPTTVVPFAYWGQGTLVTVSA VL: DIVMTQSQKFMSTSVGDRVSITCKASQNVRTVVAWYQQKPGQSPKTLIYLASNRHTGVPDRFTGSGSGTDFTLTISNVQSEDLADYFCLQHWSYPLTFGSGTKLEVKR", "values": [{"measurement": "binding result", "setting": "A33 antigen [1]", "result": "binds"}]}
{"binder": "mA33 Fab (Fab, V domains shown) VH: EVKLVESGGGLVKPGGSLKLSCAASGFAFSTYDMSWVRQTPEKRLEWVATISSGGSYTYYLDSVKGRFTISRDSARNTLYLQMSSLRSEDTALYYCAPTTVVPFAYWGQGTLVTVSA VL: DIVMTQSQKFMSTSVGDRVSITCKASQNVRTVVAWYQQKPGQSPKTLIYLASNRHTGVPDRFTGSGSGTDFTLTISNVQSEDLADYFCLQHWSYPLTFGSGTKLEVKR", "values": [{"measurement": "binding result", "setting": "A33 antigen [2]", "result": "binds"}]}
{"binder": "murine monoclonal antibody A33 (antibody, V domains shown, FITC or fluorescein label on the antibody where it is used as labelled competitor or in the Scatchard assay (about 1.5 molecules of fluorescein per antibody molecule)) VH: EVKLVESGGGLVKPGGSLKLSCAASGFAFSTYDMSWVRQTPEKRLEWVATISSGGSYTYYLDSVKGRFTISRDSARNTLYLQMSSLRSEDTALYYCAPTTVVPFAYWGQGTLVTVSA VL: DIVMTQSQKFMSTSVGDRVSITCKASQNVRTVVAWYQQKPGQSPKTLIYLASNRHTGVPDRFTGSGSGTDFTLTISNVQSEDLADYFCLQHWSYPLTFGSGTKLEVKR", "values": [{"measurement": "binding result", "setting": "A33 antigen [3]", "result": "binds"}]}
